From patent US20190359693A1 (Janssen / Centocor, published 2019)

B1: SD3073 (VHH)
VHH: EVQLVESGGGLVQPGGSLRLSCAISGLSLDTYAVGWFRQAPGKEREGVSCISSGHGMTYYADSVKGRFTVSTDNSKNTLYLQMNSLRAEDTAVYYCATESRYYCSDNWPAPQRYIYWGQGTLVTVSS
B2: SD3093 (VHH)
VHH: EVQLVESGGGLVQPGGSLRLSCAISGLSLDTYAVGWFRQAPGKEREGVSCISSGHGMTYYADSVKGRFTISTDNSKNTVYLQMNSLRAEDTAVYYCATESRYYCSDNWPAPQRYIYWGQGTLVTVSS
B3: SD3100 (VHH)
VHH: EVQLVESGGGLVQPGGSLRLSCAISGLSLDTYAVGWFRQAPGKEREGVSCISSGHGATYYADSVKGRFTISTDNSKNTLYLQMNSLRAEDTAVYYCATESRYYCSDNWPAPQRYIYWGQGTLVTVSS
B4: SD3104 (VHH)
VHH: EVQLVESGGGLVQPGGSLRLSCAISGLSLDTYAVGWFRQAPGKEREGVSCISSGHGNTYYADSVKGRFTISTDNSKNTLYLQMNSLRAEDTAVYYCATESRYYCSDNWPAPQRYIYWGQGTLVTVSS
B5: SD3103 (VHH)
VHH: EVQLVESGGGLVQPGGSLRLSCAISGLSLDTYAVGWFRQAPGKEREGVSCISSGHGDTYYADSVKGRFTISTDNSKNTLYLQMNSLRAEDTAVYYCATESRYYCSDNWPAPQRYIYWGQGTLVTVSS
B6: SD3092 (VHH)
VHH: EVQLVESGGGLVQPGGSLRLSCAISGLSLDTYAVGWFRQAPGKEREGVSCISSGHGMTYYADSVKGRFTISTDNSKNTLYLQMNSLRAEDTAVYYCATESRYYCSDNWPAPQRYIYWGQGTLVTVSS
B7: SD3101 (VHH)
VHH: EVQLVESGGGLVQPGGSLRLSCAISGLSLDTYAVGWFRQAPGKEREGVSCISSGHGSTYYADSVKGRFTISTDNSKNTLYLQMNSLRAEDTAVYYCATESRYYCSDNWPAPQRYIYWGQGTLVTVSS
B8: SD3102 (VHH)
VHH: EVQLVESGGGLVQPGGSLRLSCAISGLSLDTYAVGWFRQAPGKEREGVSCISSGHGQTYYADSVKGRFTISTDNSKNTLYLQMNSLRAEDTAVYYCATESRYYCSDNWPAPQRYIYWGQGTLVTVSS
B9: SD1086 (VHH)
VHH: EVQLVESGGGLVQAGGSLRLSCTASGSISSIDYMRWYRQYPGKHRELVATITSGGAADSRDSVKGRFTVSRGNAANTMYLQMNNLKPEDTAVYYCNAYGLEIGAHWGRGTQVTVSS
B10: MD1209 (VHH)
chain: EVQLVESGGGLVQAGGSLKLSCAASGRTYAMGWFRQAPGKEREFVAHINALGTRTYYSDSVKGRFTISRDNAKNTEYLEMNNLKPEDTAVYYCTAQGQWRAAPVAVAAEYEFWGQGTQVTVSSAAAGGGGSGGGGSGGGGSGGGGSGGGGSGGGGSGGGGSEVQLVESGGGLVQAGGSLKLSCAASGRTYAMGWFRQAPGKEREFVAHINALGTRTYYSDSVKGRFTISRDNAKNTEYLEMNNLKPEDTAVYYCTAQGQWRAAPVAVAAEYEFWGQGTQVTVSS
B11: MD1212 (VHH)
chain: EVQLVESGGGLVQPGGSLRLSCAVSISIFDIYAMDWYRQAPGKQRDLVATSFRDGSTNYADSVKGRFTISRDNAKNTLYLQMNSLKPEDTAVYLCHVSLYRDPLGVAGGMGVYWGKGALVTVSSAAAGGGGSGGGGSGGGGSGGGGSGGGGSGGGGSGGGGSEVQLVESGGGLVQPGGSLRLSCAVSISIFDIYAMDWYRQAPGKQRDLVATSFRDGSTNYADSVKGRFTISRDNAKNTLYLQMNSLKPEDTAVYLCHVSLYRDPLGVAGGMGVYWGKGALVTVSS
B12: SD3056 (VHH)
VHH: EVQLVESGGGLVQPGGSLRLSCAASGLSLDTYAMSWFRQAPGKEREGITCISSGHGFTYYADSVKGRFTISRDNSKNTLYLQMNSLQPEDTARYYCATESRYYCSDNWPAPQRYIYWGQGTQVTVSS
B13: SD3069 (VHH)
VHH: EVQLVESGGGLVQPGGSLRLSCAISGLSLDTYAVGWFRQAPGKEREGITCISSGHGMTYYADSVKGRFTVSTDNSKNTLYLQMNSLRAEDTAVYYCATESRYYCSDNWPAPQRYIYWGQGTLVTVSS
B14: SD3072 (VHH)
VHH: EVQLVESGGGLVQPGGSLRLSCAASGLSLDTYAVGWFRQAPGKEREGITCISSGHGMTYYADSVKGRFTVSTDNSKNTLYLQMNSLRAEDTAVYYCATESRYYCSDNWPAPQRYIYWGQGTLVTVSS
B15: SD3076 (VHH)
VHH: EVQLVESGGGLVQPGGSLRLSCAASGLSLDTYAVGWFRQAPGKEREGVSCISSGHGLTYYADSVKGRFTISTDNSKNTLYLQMNSLRAEDTAVYYCATESRYYCSDNWPAPQRYIYWGQGTLVTVSS
B16: SD3071 (VHH)
VHH: EVQLVESGGGLVQPGGSLRLSCAISGLSLDTYAVGWFRQAPGKEREGITCISSGHGLTYYADSVKGRFTVSTDNSKNTLYLQMNSLRAEDTAVYYCATESRYYCSDNWPAPQRYIYWGQGTLVTVSS
B17: SD3074 (VHH)
VHH: EVQLVESGGGLVQPGGSLRLSCAISGLSLDTYAVGWFRQAPGKEREGITCISSGHGMTYYADSVKGRFTISTDNSKNTLYLQMNSLRAEDTAVYYCATESRYYCSDNWPAPQRYIYWGQGTLVTVSS
B18: SD3070 (VHH)
VHH: EVQLVESGGGLVQPGGSLRLSCAISGLSLDTYAVGWFRQAPGKEREGITCISSGHGITYYADSVKGRFTVSTDNSKNTLYLQMNSLRAEDTAVYYCATESRYYCSDNWPAPQRYIYWGQGTLVTVSS
B19: SD3075 (VHH)
VHH: EVQLVESGGGLVQPGGSLRLSCAASGLSLDTYAVGWFRQAPGKEREGVSCISSGHGITYYADSVKGRFTISTDNSKNTLYLQMNSLRAEDTAVYYCATESRYYCSDNWPAPQRYIYWGQGTLVTVSS
B20: SD1049 (VHH)
VHH: EVQLVESGGGLVQAGGSLRLSCAASGRTLSLYSVGWFRQAPGKEREFVATIGWNSGRTFYVDSMKGRFTISRDNAKNTVYLQMNDLKVEDTAVYYCAAAKGPLRLSNQADYWGQGTQVTVSS

Legend:
[1] = biological target: hemagglutinin (HA) of influenza B/Brisbane/60/08 (Victoria) (influenza B virus); assay: cell-based or functional assay
[2] = biological target: HA of B/Harbin/7/94 (Yamagata) (influenza B virus); assay: cell-based or functional assay
[3] = biological target: HA of B/Malaysia/2506/04 (Victoria) (influenza B virus); assay: cell-based or functional assay
[4] = biological target: recombinant HA of H1N1 A/New Caledonia/20/1999 (influenza A virus, UniProt Q289M7 18-565); assay: biolayer interferometry (Octet), steady-state fit, geometric mean
[5] = biological target: hemagglutinin (HA) of influenza virus H1N1 A/California/07/09 (influenza A virus); assay: cell-based or functional assay
[6] = biological target: hemagglutinin (HA) of influenza virus H1N1 A/Puerto Rico/8/34-MA (influenza A virus); assay: cell-based or functional assay
[7] = biological target: hemagglutinin (HA) of influenza virus H5N1 A/Vietnam/1194/04 (influenza A virus); assay: cell-based or functional assay
[8] = biological target: hemagglutinin (HA) of influenza virus H3N2 A/Wisconsin/67/05 (influenza A virus); assay: cell-based or functional assay
[9] = biological target: HA of H3N2 A/HK/1/68-MA (influenza A virus); assay: cell-based or functional assay
[10] = biological target: HA of H1N1 A/Puerto Rico/8/34-MA (influenza A virus); assay: cell-based or functional assay

Binder	VNA IC50 [1]	further results
B1	28 nM	
B2	32 nM	
B3	> 1000 nM	
B4	> 1000 nM	
B5	> 1000 nM	
B6	51 nM	
B7	> 1000 nM	
B8	> 1000 nM	
B9		VNA titer [2]: > 1000 nM; VNA titer [3]: > 1000 nM
B10		Kd [4]: 1.9 nM; neutralization titer [5]: 10.1 nM; neutralization titer [6]: 221 nM; neutralization titer [7]: < 1000 nM; neutralization titer [8]: 109 nM
B11		Kd [4]: 1.4 nM; neutralization titer [5]: 3.7 nM; neutralization titer [6]: 11.7 nM; neutralization titer [7]: 14.8 nM; neutralization titer [8]: 49.5 nM
B12	> 1000 nM	
B13	56 nM	
B14	160 nM	
B15	> 1000 nM	
B16	> 1000 nM	
B17	36 nM	
B18	> 1000 nM	
B19	> 1000 nM	
B20		VNA titer [9]: 76.1 nM; VNA titer [10]: > 1000 nM
